Target: TMED6 (Homo sapiens, UniProt Q8WW62 Q8WW62:22-240)
Assay: competition; recombinant TMED6 (aptamer/protein molar ratio 1/1-1/10) dose-dependently inhibits aptamer staining of human pancreas sections
Conditions: tags: HuProt v2.0 protein array (Arrayit); label: Cy3
Description: To identify the target of aptamer 1-717, protein arrays (HuProt™v2.0, Arrayit) were used. These protein arrays contains more than 19,000 human recombinant proteins allowing, by informatics analysis, the identification of the cognate protein of antibodies, peptides, or protein. This technology has been adapted for the identification of aptamer's ligands. Briefly, pre-blocked arrays were hybridized with 1 μg of cy3 labeled 1-717 or m12-3773 in blocking buffer for 30′ at RT. Arrays were washed, read in triplicate on a Genepix microarray reader and analyzed by an ad hoc generated software. This software 1) acquires the data from the gpr file, 2) adds a description column with (GeneID, Control, blank, ND), 2) use a optimized “plotArray” function modified in several points (the script was implemented for a specific protein array, plus some problem in UTF file format), 3) performs a quality control that includes a microarray image rebuilding the generation of MA plots, 4) normalized the data and substracts the background; and 5) analyze the differential expression between arrays via graphs of p-value distribution, volcano plot, and analysis of significant modulation by t-test. This analysis proposed TMED6 (NM144676.1, protein id Q8WW62) as the most likely ligand of aptamer 1-717. […] Images were acquired by a fluorescence microscope and aptamer binding quantified by cellprofiler.

TMED6, sequence (Q8WW62 22-240, one chain of several): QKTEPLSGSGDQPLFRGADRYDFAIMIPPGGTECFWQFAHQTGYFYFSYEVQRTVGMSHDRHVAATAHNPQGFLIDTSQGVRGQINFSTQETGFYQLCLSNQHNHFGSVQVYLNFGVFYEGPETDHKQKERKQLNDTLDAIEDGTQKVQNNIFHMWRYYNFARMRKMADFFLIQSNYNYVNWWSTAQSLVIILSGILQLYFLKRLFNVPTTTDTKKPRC

B1: 1-717 (ssRNA)
RNA: GGAGGACGAUGCGGUAAUUCUCAGGAGGUGCGGAACGGGAUAUGGAUUGUUCGCCAGACGACUCGCUGAGGAUCCGAGA
modifications: 2'-F pyrimidines (2'-F-dCTP, 2'-F-dUTP in selection transcription)
- binding result: binds
